Test results published in patent publication US20180155451A1 (published 2018).

T1: FcγRIIb extracellular domain with C-terminal His tag (human, UniProt P31994 43-217)
T1 construct: extracellular domain; soluble receptor expressed in FreeStyle293 cells, used as analyte in Biacore; also called FcgRIIb; 2b; not shown: His tag attached to the C terminus
T1 sequence (looked up): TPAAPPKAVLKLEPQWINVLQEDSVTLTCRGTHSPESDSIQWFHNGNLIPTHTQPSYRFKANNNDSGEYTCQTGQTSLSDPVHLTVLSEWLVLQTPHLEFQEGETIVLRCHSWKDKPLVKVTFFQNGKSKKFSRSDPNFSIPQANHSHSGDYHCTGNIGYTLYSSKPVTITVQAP

B1: GpH7-A5/GpH7-B3 variant D270_04F/GpL16-k0 (antibody, human IgG1, kappa)
heavy 1: not shown
heavy 2: not shown
light: DIVMTQSPLSLPVTPGEPASISCQASESLVHSNRNTYLHWYLQKPGQSPQLLIYKVSNRFSGVPDRFSGSGSGTDFTLKISRVEAEDVGVYYCSQNTHVPPTFGQGTKVEIERTVAAPSVFIFPPSDEQLKSGTASVVCLLNNFYPREAKVQWKVDNALQSGNSQESVTEQDSKDSTYSLSSTLTLSKADYEKHKVYACEVTHQGLSSPVTKSFNRGEC
notes: heterodimerized anti-glypican-3 IgG1; alteration in the GpH7-B3 chain only; also called He Ab
B2: GpH7-A5/GpH7-B3 variant E269_19Q/GpL16-k0 (antibody, human IgG1, kappa)
heavy 1: not shown
heavy 2: not shown
light: B1 light
notes: as for B1
B3: GpH7-A5/GpH7-B3 variant P329_01G/GpL16-k0 (antibody, human IgG1, kappa)
heavy 1: not shown
heavy 2: not shown
light: B1 light
notes: as for B1
B4: GpH7-A5/GpH7-B3 variant E333_03V/GpL16-k0 (antibody, human IgG1, kappa)
heavy 1: not shown
heavy 2: not shown
light: B1 light
notes: as for B1
B5: GpH7-A5/GpH7-B3 variant Q295_12R/GpL16-k0 (antibody, human IgG1, kappa)
heavy 1: not shown
heavy 2: not shown
light: B1 light
notes: as for B1
B6: GpH7-A5/GpH7-B3 variant Q295_13S/GpL16-k0 (antibody, human IgG1, kappa)
heavy 1: not shown
heavy 2: not shown
light: B1 light
notes: as for B1
B7: GpH7-A5/GpH7-B3 variant P329_02A/GpL16-k0 (antibody, human IgG1, kappa)
heavy 1: not shown
heavy 2: not shown
light: B1 light
notes: as for B1
B8: GpH7-A5/GpH7-B3 variant D270_06M/GpL16-k0 (antibody, human IgG1, kappa)
heavy 1: not shown
heavy 2: not shown
light: B1 light
notes: as for B1
B9: GpH7-A5/GpH7-B3 variant P271_15Y/GpL16-k0 (antibody, human IgG1, kappa)
heavy 1: not shown
heavy 2: not shown
light: B1 light
notes: as for B1
B10: GpH7-A5/GpH7-B3 variant E333_06M/GpL16-k0 (antibody, human IgG1, kappa)
heavy 1: not shown
heavy 2: not shown
light: B1 light
notes: as for B1
B11: GpH7-A5/GpH7-B3 variant Q295_11K/GpL16-k0 (antibody, human IgG1, kappa)
heavy 1: not shown
heavy 2: not shown
light: B1 light
notes: as for B1
B12: GpH7-A5/GpH7-B3 variant Q295_01G/GpL16-k0 (antibody, human IgG1, kappa)
heavy 1: not shown
heavy 2: not shown
light: B1 light
notes: as for B1
B13: GpH7-A5/GpH7-B3 variant P271_07I/GpL16-k0 (antibody, human IgG1, kappa)
heavy 1: not shown
heavy 2: not shown
light: B1 light
notes: as for B1
B14: GpH7-A5/GpH7-B3 variant Q295_09D/GpL16-k0 (antibody, human IgG1, kappa)
heavy 1: not shown
heavy 2: not shown
light: B1 light
notes: as for B1
B15: GpH7-A5/GpH7-B3 variant E333_01G/GpL16-k0 (antibody, human IgG1, kappa)
heavy 1: not shown
heavy 2: not shown
light: B1 light
notes: as for B1
B16: GpH7-A5/GpH7-B3 variant E269_20W/GpL16-k0 (antibody, human IgG1, kappa)
heavy 1: not shown
heavy 2: not shown
light: B1 light
notes: as for B1
B17: GpH7-A5/GpH7-B3 variant P271_06M/GpL16-k0 (antibody, human IgG1, kappa)
heavy 1: not shown
heavy 2: not shown
light: B1 light
notes: as for B1
B18: GpH7-A5/GpH7-B3 variant D270_16H/GpL16-k0 (antibody, human IgG1, kappa)
heavy 1: not shown
heavy 2: not shown
light: B1 light
notes: as for B1
B19: GpH7-A5/GpH7-B3 variant S324_09D/GpL16-k0 (antibody, human IgG1, kappa)
heavy 1: not shown
heavy 2: not shown
light: B1 light
notes: as for B1
B20: GpH7-A5/GpH7-B3 variant E333_07I/GpL16-k0 (antibody, human IgG1, kappa)
heavy 1: not shown
heavy 2: not shown
light: B1 light
notes: as for B1
B21: GpH7-A5/GpH7-B3 variant D270_13S/GpL16-k0 (antibody, human IgG1, kappa)
heavy 1: not shown
heavy 2: not shown
light: B1 light
notes: as for B1
B22: GpH7-A5/GpH7-B3 variant P271_03V/GpL16-k0 (antibody, human IgG1, kappa)
heavy 1: not shown
heavy 2: not shown
light: B1 light
notes: as for B1
B23: GpH7-A5/GpH7-B3 variant Q295_15Y/GpL16-k0 (antibody, human IgG1, kappa)
heavy 1: not shown
heavy 2: not shown
light: B1 light
notes: as for B1
B24: GpH7-A5/GpH7-B3 variant S324_10E/GpL16-k0 (antibody, human IgG1, kappa)
heavy 1: not shown
heavy 2: not shown
light: B1 light
notes: as for B1

Target: T2, FcγRIa extracellular domain with C-terminal His tag (human, UniProt P12314 16-292)
T2 construct: extracellular domain; soluble receptor expressed in FreeStyle293 cells, used as analyte in Biacore; also called FcgRI; 1a; not shown: His tag attached to the C terminus
T2 sequence (P12314 16-292): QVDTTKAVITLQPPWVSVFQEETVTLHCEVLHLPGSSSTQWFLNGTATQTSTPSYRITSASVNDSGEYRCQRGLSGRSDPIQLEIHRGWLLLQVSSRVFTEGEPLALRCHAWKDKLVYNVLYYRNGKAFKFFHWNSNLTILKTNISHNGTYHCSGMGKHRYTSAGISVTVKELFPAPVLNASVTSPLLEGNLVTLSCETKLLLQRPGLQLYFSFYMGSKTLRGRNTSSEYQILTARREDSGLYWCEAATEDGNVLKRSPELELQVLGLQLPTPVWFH
Assay: SPR (Biacore), antibody captured on antigen peptide chip, FcγR as analyte; relative binding

He/Con_1a	Binder
78.1 % of control GpH7-A5/GpH7-B3/GpL16-k0 (=100)	B1
105 % of control GpH7-A5/GpH7-B3/GpL16-k0 (=100)	B2
101 % of control GpH7-A5/GpH7-B3/GpL16-k0 (=100)	B3
105 % of control GpH7-A5/GpH7-B3/GpL16-k0 (=100)	B4
100 % of control GpH7-A5/GpH7-B3/GpL16-k0 (=100)	B5
102 % of control GpH7-A5/GpH7-B3/GpL16-k0 (=100)	B6
102 % of control GpH7-A5/GpH7-B3/GpL16-k0 (=100)	B7
78.8 % of control GpH7-A5/GpH7-B3/GpL16-k0 (=100)	B8
103 % of control GpH7-A5/GpH7-B3/GpL16-k0 (=100)	B9
102 % of control GpH7-A5/GpH7-B3/GpL16-k0 (=100)	B10
101 % of control GpH7-A5/GpH7-B3/GpL16-k0 (=100)	B11
97.6 % of control GpH7-A5/GpH7-B3/GpL16-k0 (=100)	B12
102 % of control GpH7-A5/GpH7-B3/GpL16-k0 (=100)	B13
100 % of control GpH7-A5/GpH7-B3/GpL16-k0 (=100)	B14
103 % of control GpH7-A5/GpH7-B3/GpL16-k0 (=100)	B15
105 % of control GpH7-A5/GpH7-B3/GpL16-k0 (=100)	B16
102 % of control GpH7-A5/GpH7-B3/GpL16-k0 (=100)	B17
66 % of control GpH7-A5/GpH7-B3/GpL16-k0 (=100)	B18
104 % of control GpH7-A5/GpH7-B3/GpL16-k0 (=100)	B19
102 % of control GpH7-A5/GpH7-B3/GpL16-k0 (=100)	B20
75.3 % of control GpH7-A5/GpH7-B3/GpL16-k0 (=100)	B21
102 % of control GpH7-A5/GpH7-B3/GpL16-k0 (=100)	B22
102 % of control GpH7-A5/GpH7-B3/GpL16-k0 (=100)	B23
105 % of control GpH7-A5/GpH7-B3/GpL16-k0 (=100)	B24

Target: T1, FcγRIIb extracellular domain with …
Assay: as above

He/Con_2b	Binder
53.1 % of control GpH7-A5/GpH7-B3/GpL16-k0 (=100)	B1
44.3 % of control GpH7-A5/GpH7-B3/GpL16-k0 (=100)	B2
41.7 % of control GpH7-A5/GpH7-B3/GpL16-k0 (=100)	B3
93.2 % of control GpH7-A5/GpH7-B3/GpL16-k0 (=100)	B4
65.2 % of control GpH7-A5/GpH7-B3/GpL16-k0 (=100)	B5
56.9 % of control GpH7-A5/GpH7-B3/GpL16-k0 (=100)	B6
40.5 % of control GpH7-A5/GpH7-B3/GpL16-k0 (=100)	B7
48.2 % of control GpH7-A5/GpH7-B3/GpL16-k0 (=100)	B8
52.3 % of control GpH7-A5/GpH7-B3/GpL16-k0 (=100)	B9
85.4 % of control GpH7-A5/GpH7-B3/GpL16-k0 (=100)	B10
70.4 % of control GpH7-A5/GpH7-B3/GpL16-k0 (=100)	B11
46 % of control GpH7-A5/GpH7-B3/GpL16-k0 (=100)	B12
76.8 % of control GpH7-A5/GpH7-B3/GpL16-k0 (=100)	B13
60.8 % of control GpH7-A5/GpH7-B3/GpL16-k0 (=100)	B14
81.4 % of control GpH7-A5/GpH7-B3/GpL16-k0 (=100)	B15
42.5 % of control GpH7-A5/GpH7-B3/GpL16-k0 (=100)	B16
77.5 % of control GpH7-A5/GpH7-B3/GpL16-k0 (=100)	B17
47.2 % of control GpH7-A5/GpH7-B3/GpL16-k0 (=100)	B18
85.8 % of control GpH7-A5/GpH7-B3/GpL16-k0 (=100)	B19
96.2 % of control GpH7-A5/GpH7-B3/GpL16-k0 (=100)	B20
44.2 % of control GpH7-A5/GpH7-B3/GpL16-k0 (=100)	B21
74.8 % of control GpH7-A5/GpH7-B3/GpL16-k0 (=100)	B22
65.4 % of control GpH7-A5/GpH7-B3/GpL16-k0 (=100)	B23
77.4 % of control GpH7-A5/GpH7-B3/GpL16-k0 (=100)	B24
